Test results reported in paper doi:10.1101/2020.07.27.221150.
Where two headings read alike, the source gives them in different places.

What was measured:
[1] = target: GNNQQNY, N-terminal hepta-peptide of yeast prion protein Sup35 (yeast)
[2] = target: GNNQQNY, N-terminal hepta-peptide of yeast prion protein Sup35 (yeast); remark: listed apart in the source

“GNNQQNY, N-terminal hepta-peptide of yeast prion protein Sup35” gave a size of the critical nucleus n* [1] of 7.2 monomers and a size of the critical nucleus n* [2] of 6 monomers.
